Experimental data taken from US10940182B2, “Use of modified vasoactive intestinal peptides in the treatment of hypertension” (PhaseBio Pharmaceuticals, Inc., priority 2011, dated 2021).

Columns and labels:
[1] = target: T1, human Vasoactive Intestinal Peptide Receptor 1 (VPAC1) (Homo sapiens, UniProt P32241); assay: cAMP cell-based bioassay, CHO cells expressing VPAC1; conditions: for in vitro activity for VPAC1 receptor compared with native VIP: cAMP, CHO cells expressing VPAC1, 30 minute incubation, FIG. 7, PB1047 DPP-IV treated
T1 construct: expressed in transfected cells; host or cells: Chinese Hamster Ovary (CHO) cells
T1 sequence (P32241 31-457): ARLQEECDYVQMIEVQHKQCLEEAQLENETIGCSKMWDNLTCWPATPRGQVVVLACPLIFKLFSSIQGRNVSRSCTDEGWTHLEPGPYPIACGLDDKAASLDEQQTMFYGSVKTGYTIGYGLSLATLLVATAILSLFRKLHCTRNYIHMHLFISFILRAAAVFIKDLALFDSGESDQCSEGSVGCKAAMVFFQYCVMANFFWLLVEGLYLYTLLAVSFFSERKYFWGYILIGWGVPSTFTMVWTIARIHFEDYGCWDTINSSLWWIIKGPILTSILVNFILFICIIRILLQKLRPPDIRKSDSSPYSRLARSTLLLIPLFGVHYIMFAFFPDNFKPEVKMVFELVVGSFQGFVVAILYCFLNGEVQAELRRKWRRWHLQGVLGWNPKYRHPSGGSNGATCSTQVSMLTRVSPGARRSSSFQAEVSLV
Protocol: (§1) Since the amount of cAMP accumulation in cells after receptor-mediated ligand binding and activation is directly proportional to the amount of intact peptide or fusion protein present, the assay can be used to determine bioactivity and relative potency.
(§2) After 30 minute incubations of various concentrations of the fusion proteins with CHO cells, cells were lysed and the amount of cAMP produced was measured using a commercial kit. PB1047 was DPP-IV treated prior to the addition to the cells.
The activity of the PB1120 fusion peptide was tested in vitro.

[2] = target: T2, human Vasoactive Intestinal Peptide Receptor 2 (VPAC2) (Homo sapiens, UniProt P41587); assay: cAMP cell-based bioassay, CHO cells expressing VPAC2; conditions: for in vitro activity for VPAC2 receptor compared with native VIP: cAMP, CHO cells expressing VPAC2, 30 minute incubation, FIG. 6, PB1047 DPP-IV treated
T2 construct: expressed in transfected cells; host or cells: Chinese Hamster Ovary (CHO) cells
T2 sequence (P41587 24-438): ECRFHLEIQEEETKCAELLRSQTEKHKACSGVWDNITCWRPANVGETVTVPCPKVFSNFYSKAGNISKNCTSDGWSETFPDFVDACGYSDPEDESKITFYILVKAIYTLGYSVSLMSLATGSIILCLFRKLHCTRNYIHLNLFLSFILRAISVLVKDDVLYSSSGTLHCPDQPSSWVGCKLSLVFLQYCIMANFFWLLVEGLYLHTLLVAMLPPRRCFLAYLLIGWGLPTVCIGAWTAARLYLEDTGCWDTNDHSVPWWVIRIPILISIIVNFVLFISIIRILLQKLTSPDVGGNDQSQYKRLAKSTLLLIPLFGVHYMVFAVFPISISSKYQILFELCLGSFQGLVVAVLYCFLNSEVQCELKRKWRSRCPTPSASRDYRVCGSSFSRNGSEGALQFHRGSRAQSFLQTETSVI
Protocol: as §1
as §2, with “In this example, the activity of VIP-ELP fusion proteins PB1046 and PB1047 was tested. […] Both constructs have ELP(1-120) at their C-terminus. […] After” for “After”, “the cell, the” for “CHO cells,”
FIG. 11 illustrates the activity of PB1120 for the VPAC2 receptor. […] However, in contrast to the results seen with VPAC1, PB1046 was equipotent for VPAC2 as compared to the native peptide.

[3] = system: Spontaneously hypertensive rats; assay: Blood pressure effect of PB1047 in spontaneously hypertensive rats; format: in vivo, rat; conditions: 10 mg/kg subcutaneous, vs buffer control, FIG. 8
Protocol: The activity of the modified VIP-ELP fusion protein PB1047 was also tested in vivo. Specifically, effects of VIP-ELP fusion protein on blood pressure were tested. Spontaneously hypertensive rats were treated subcutaneous with PB1047 (10 mg/kg) or buffer control and their blood pressures were measured at several points after administration of the fusion protein. Five animals were used for each group and the graphs show the average and the standard deviation.

[4] = system: conscious spontaneously hypertensive rats (SHR); assay: Telemetric blood pressure and heart rate in conscious SHR, single SQ dose, with and without atenolol (Example 7); format: in vivo, rat; conditions: for heart rate: +2 hr
Protocol: Here, the effects of PB 1046 (Vasomera™) when given as a single-dose SQ bolus to conscious spontaneously hypertensive rats (SHR) was tested.
SHR rats (351±4 g, n=8) were instrumented for telemetric blood pressure and ECG monitoring. Via a Latin-Square design, the effects of Vasomera (1, 3, and 9 mg/kg SQ) as well as of vehicle (VEH, SQ) were evaluated. Finally, Vasomera™ (9 mg/kg SQ) was assayed during concomitant β-adrenergic receptor blockade (BB, atenolol 20 mg/kg/day PO). Changes in mean arterial pressure (MAP) and heart rate (HR) were measured.

[5] = system: conscious spontaneously hypertensive rats (SHR); assay: Telemetric blood pressure and heart rate in conscious SHR pretreated with anti-hypertensives (Example 8); format: in vivo, rat; conditions: 9 mg/kg SQ
Protocol: The hemodynamic effects of Vasomera™ when given as a single-dose SQ bolus to conscious spontaneously hypertensive rats (SHR) pretreated with three common anti-hypertensives were tested.
SHR rats (351±4 g, n=8) were instrumented for telemetric BP and ECG monitoring. First, both Vasomera™ (9 mg [177 nmol]/kg, SQ) and placebo (VEH) were assayed in untreated animals. Then, the effects of Vasomera™ were tested during concomitant oral β-adrenergic receptor blockade (+BB, atenolol 20 mg/kg/day), calcium-channel blockade (+CCB, amlodipine 5 mg/kg/day) and ACE-inhibition (+ACE, ramipril 1 mg/kg/day). Mean arterial pressure (MAP) and heart rate (HR) were measured/averaged over 24 hours both pre- and post-dosing.

[6] = under β-adrenergic receptor blockade (atenolol 20 mg/kg/day)
[7] = untreated rats, averaged over 24 hours

B1: PB1047: VIP-ELP fusion protein with tripeptide MAA at the N-terminus (Met removed to leave AA), ELP1-120 at C-terminus (SEQ ID NO: 15) (protein)
chain: MAAHSDAVFTDNYTRLRKQMAVKKYLNSILNVPGVGVPGVGVPGGGVPGAGVPGVGVPGVGVPGVGVPGGGVPGAGVPGGGVPGVGVPGVGVPGGGVPGAGVPGVGVPGVGVPGVGVPGGGVPGAGVPGGGVPGVGVPGVGVPGGGVPGAGVPGVGVPGVGVPGVGVPGGGVPGAGVPGGGVPGVGVPGVGVPGGGVPGAGVPGVGVPGVGVPGVGVPGGGVPGAGVPGGGVPGVGVPGVGVPGGGVPGAGVPGVGVPGVGVPGVGVPGGGVPGAGVPGGGVPGVGVPGVGVPGGGVPGAGVPGVGVPGVGVPGVGVPGGGVPGAGVPGGGVPGVGVPGVGVPGGGVPGAGVPGVGVPGVGVPGVGVPGGGVPGAGVPGGGVPGVGVPGVGVPGGGVPGAGVPGVGVPGVGVPGVGVPGGGVPGAGVPGGGVPGVGVPGVGVPGGGVPGAGVPGVGVPGVGVPGVGVPGGGVPGAGVPGGGVPGVGVPGVGVPGGGVPGAGVPGVGVPGVGVPGVGVPGGGVPGAGVPGGGVPGVGVPGVGVPGGGVPGAGVPGVGVPGVGVPGVGVPGGGVPGAGVPGGGVPGVGVPGVGVPGGGVPGAGVPGVGVPGVGVPGVGVPGGGVPGAGVPGGGVPGWP
modifications: MAA-VIP ELP1-120
in vitro activity for VPAC1 receptor compared with native VIP [1]: about the same as it was in the test for VPAC2 receptor | in vitro activity for VPAC2 receptor compared with native VIP [2]: less active | diastolic blood pressure [3]: significantly reduced | systolic blood pressure [3]: significantly reduced

B2: PB1046: VIP-ELP fusion protein: VIP with Met at the N-terminus and ELP1-120 fused at the C-terminus (SEQ ID NO: 14) (protein)
chain: MHSDAVFTDNYTRLRKQMAVKKYLNSILNVPGVGVPGVGVPGGGVPGAGVPGVGVPGVGVPGVGVPGGGVPGAGVPGGGVPGVGVPGVGVPGGGVPGAGVPGVGVPGVGVPGVGVPGGGVPGAGVPGGGVPGVGVPGVGVPGGGVPGAGVPGVGVPGVGVPGVGVPGGGVPGAGVPGGGVPGVGVPGVGVPGGGVPGAGVPGVGVPGVGVPGVGVPGGGVPGAGVPGGGVPGVGVPGVGVPGGGVPGAGVPGVGVPGVGVPGVGVPGGGVPGAGVPGGGVPGVGVPGVGVPGGGVPGAGVPGVGVPGVGVPGVGVPGGGVPGAGVPGGGVPGVGVPGVGVPGGGVPGAGVPGVGVPGVGVPGVGVPGGGVPGAGVPGGGVPGVGVPGVGVPGGGVPGAGVPGVGVPGVGVPGVGVPGGGVPGAGVPGGGVPGVGVPGVGVPGGGVPGAGVPGVGVPGVGVPGVGVPGGGVPGAGVPGGGVPGVGVPGVGVPGGGVPGAGVPGVGVPGVGVPGVGVPGGGVPGAGVPGGGVPGVGVPGVGVPGGGVPGAGVPGVGVPGVGVPGVGVPGGGVPGAGVPGGGVPGVGVPGVGVPGGGVPGAGVPGVGVPGVGVPGVGVPGGGVPGAGVPGGGVPGWP
modifications: M-VIP ELP1-120
lowering of MAP vs VEH ([4]; 9 mg/kg (177 nmol/kg) SQ, +6 hr): 16±3% | heart rate ([4]; 9 mg/kg SQ with β-adrenergic receptor blockade (atenolol 20 mg/kg/day PO)): 308±3 bpm | MAP ([4]; 9 mg/kg SQ with β-adrenergic receptor blockade (atenolol 20 mg/kg/day PO), +6 hr): 131±3 mmHg | heart rate ([4]; 9 mg/kg SQ): 370±15 bpm | MAP ([4]; 9 mg/kg SQ, +6 hr): 154±5 mmHg | duration of dose-dependent decreases in blood pressure post-dosing ([4]; 1, 3, 9 mg/kg SQ, FIG. 14A): up to 12 hours | adverse clinical effects ([4]; SHR, 1-9 mg/kg SQ, with or without atenolol): No adverse clinical effects were noted | fold less active than the native VIP peptide on the VPAC1 receptor ([1]; FIG. 10): approximately 11 fold | in vitro activity for VPAC1 receptor compared with native VIP [1]: much less active than native VIP protein | potency for VPAC2 as compared to the native peptide ([2]; FIG. 11): equipotent | selectivity for VPAC2 receptor over VPAC1 receptor ([2]; cAMP assays, FIG. 6 and 7): selectively activates VPAC2 receptor over VPAC1 receptor | in vitro activity for VPAC2 receptor compared with native VIP [2]: somewhat more active than native VIP protein | duration of decreases in blood pressure post-dosing ([5]; FIG. 15A): up to 12 hours | change in MAP ([5]; rats pre-treated with amlodipine 5 mg/kg/day oral): −13±2% | change in MAP ([5]; rats pre-treated with atenolol 20 mg/kg/day oral): −14±1% | change in MAP ([5]; rats pre-treated with ramipril 1 mg/kg/day oral): −9±2% | change in heart rate [5, 6]: +6±1% | heart rate post-dosing [5, 6]: 294±2 bpm | MAP post-dosing [5, 7]: 171±5 mmHg | change in heart rate [5, 7]: +8±1% | heart rate post-dosing [5, 7]: 384±8 bpm | lowering of MAP, post- vs pre-dosing [5, 7]: 9±1% | chronotropy under co-treatment ([5]; with amlodipine 5 mg/kg/day): unaffected | chronotropy under co-treatment ([5]; with ramipril 1 mg/kg/day): unaffected | adverse clinical effects ([5]; SHR, with or without anti-hypertensives): no adverse clinical effects were noted
